Test results as given in patent publication US20220112262A1 (CASE WESTERN RESERVE UNIVERSITY, published 2022).

Target: T1, FLAG epitope-tagged holoreceptor of human type 1 insulin-like growth factor receptor (hIGFR) (human, UniProt P08069 31-1367)
T1 construct: The holoreceptor was captured on 96 well plates coated with anti-FLAG monoclonal antibody; also called IGF-R1; IGF-1R
Assay: competitive displacement of 125I-labeled human insulin from plate-captured FLAG-tagged hIGFR

T1 sequence (P08069 31-1367 limits assumed): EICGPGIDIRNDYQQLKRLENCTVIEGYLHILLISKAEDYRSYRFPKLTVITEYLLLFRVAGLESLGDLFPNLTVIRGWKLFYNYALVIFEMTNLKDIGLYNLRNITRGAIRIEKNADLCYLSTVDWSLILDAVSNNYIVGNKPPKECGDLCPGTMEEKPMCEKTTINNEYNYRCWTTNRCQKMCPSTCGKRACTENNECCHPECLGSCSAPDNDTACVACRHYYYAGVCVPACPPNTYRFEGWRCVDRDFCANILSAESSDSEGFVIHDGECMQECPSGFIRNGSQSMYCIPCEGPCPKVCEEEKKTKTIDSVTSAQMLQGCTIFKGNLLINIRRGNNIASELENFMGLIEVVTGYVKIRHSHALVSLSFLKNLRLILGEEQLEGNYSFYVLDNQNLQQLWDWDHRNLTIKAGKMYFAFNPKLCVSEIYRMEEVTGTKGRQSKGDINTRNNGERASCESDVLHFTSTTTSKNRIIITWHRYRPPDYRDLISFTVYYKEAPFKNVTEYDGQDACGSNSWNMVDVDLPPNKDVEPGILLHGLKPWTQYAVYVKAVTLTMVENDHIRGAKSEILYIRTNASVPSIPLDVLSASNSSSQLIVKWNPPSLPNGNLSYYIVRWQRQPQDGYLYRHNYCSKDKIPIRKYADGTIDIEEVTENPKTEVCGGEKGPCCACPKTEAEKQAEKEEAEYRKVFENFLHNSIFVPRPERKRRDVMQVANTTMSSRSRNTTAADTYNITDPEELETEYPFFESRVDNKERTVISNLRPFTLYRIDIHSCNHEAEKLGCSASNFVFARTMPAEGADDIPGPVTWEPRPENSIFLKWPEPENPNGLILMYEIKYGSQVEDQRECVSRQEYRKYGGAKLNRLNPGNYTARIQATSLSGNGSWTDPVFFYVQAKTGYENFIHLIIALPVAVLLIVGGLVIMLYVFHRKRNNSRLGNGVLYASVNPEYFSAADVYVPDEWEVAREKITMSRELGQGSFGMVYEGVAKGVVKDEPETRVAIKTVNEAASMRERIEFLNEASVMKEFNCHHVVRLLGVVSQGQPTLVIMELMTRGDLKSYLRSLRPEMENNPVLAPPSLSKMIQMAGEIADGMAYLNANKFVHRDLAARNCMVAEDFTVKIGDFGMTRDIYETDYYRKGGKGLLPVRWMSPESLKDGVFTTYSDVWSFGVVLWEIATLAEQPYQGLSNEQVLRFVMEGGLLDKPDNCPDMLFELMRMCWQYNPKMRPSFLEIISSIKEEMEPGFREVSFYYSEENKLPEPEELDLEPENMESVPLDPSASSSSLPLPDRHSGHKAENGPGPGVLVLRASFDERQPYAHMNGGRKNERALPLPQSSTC

B1: des-[B1, B2], Glu^B3, His^A8, Glu^A14, Gln^A17, des-B30-insulin (T-0706) (ligand)
chain 1: GIVEQCCHSICSLEQLQNYCN
chain 2: EQHLCGSHLVEALYLVCGERGFFYTPK
modifications: not fully specified
notes: Formulated without zinc; also called HA8 EA14 QA17 des[B1-B2]; EB3 desB30
  Binding Affinity: 0.16
  IGF1-R (Rel. Aff.), relative to insulin lispro: 18%
